The results in this text go back to PMC7820984.

This data set concerns the target T1, MBP-WRKY21 (Oryza sativa, UniProt Q5FZT4 1-280).
T1 sequence: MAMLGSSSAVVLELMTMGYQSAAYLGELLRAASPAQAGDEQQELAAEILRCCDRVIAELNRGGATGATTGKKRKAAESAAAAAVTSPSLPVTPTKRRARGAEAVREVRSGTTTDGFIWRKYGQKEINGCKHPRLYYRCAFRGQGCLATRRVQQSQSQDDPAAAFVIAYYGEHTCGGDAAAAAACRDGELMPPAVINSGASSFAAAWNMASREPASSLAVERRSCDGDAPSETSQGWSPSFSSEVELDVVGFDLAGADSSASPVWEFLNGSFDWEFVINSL
Put plainly: EMSA.

B1: F2 (Wz and Wy W-boxes) (dsDNA)
DNA 1: TTTTAATAGATGACGCCGTTGACTTTTTCTTACATATTTGACCATTCGTCTTATCCAAAA
DNA 2: TTTTGGATAAGACGAATGGTCAAATATGTAAGAAAAAGTCAACGGCGTCATCTATTAAAA
B1: the binding result is “binds”.

B2: F2-m (Wz and Wy mutated) (dsDNA)
DNA 1: TTTTAATAGATGACGCCGTTGAATTTTTCTTACATATTTGAACATTCGTCTTATCCAAAA
DNA 2: TTTTGGATAAGACGAATGTTCAAATATGTAAGAAAAATTCAACGGCGTCATCTATTAAAA
With B2, the binding result is “no binding”.
